Experiments:
[1] = substrate: N[C@@H](CC1(C(=O)O)C=CC(O)C=C1)C(=O)O; experiment: TyrA arogenate dehydrogenase kinetics and tyrosine inhibition (340 nm); type: biochemical, Sorghum bicolor; settings: other: NADP^+, pH 7.5, 37° C.
Source text: (§1) Next, to study the biochemical properties of grass TyrA enzymes, we generated and characterized recombinant purified TyrA proteins from Brachypodium (BdTyrA) and Sorghum (SbTyrA), two distantly related grass species^43, 44. Whereas TyrA enzymes from dicot plants are generally NADP^+-dependent arogenate dehydrogenases^20, 39, 45, except for NADP^+-prephenate dehydrogenases in the legume family^40, 46, previous reports on the substrate preference of grass TyrA enzymes are inconclusive^17, 19. […] NAD^+-prephenate dehydrogenase activity was absent in all cases, ruling out a significant contamination of the enzyme preparations with the TyrA enzyme from E. coli^47.48.

[2] = substrate: N[C@@H](CC1(C(=O)O)C=CC(O)C=C1)C(=O)O; experiment: as above; type: biochemical, Brachypodium distachyon; settings: other: NADP^+, pH 7.5, 37° C.
Source text: as §1

| Protein | Km [1] [µM] | kcat [1] [s⁻¹] | kcat/Km [1] [M⁻¹ s⁻¹] | Km [2] [µM] | kcat [2] [s⁻¹] | kcat/Km [2] [M⁻¹ s⁻¹] |
| --- | --- | --- | --- | --- | --- | --- |
| Sorghum bicolor SbTyrA2, SEQ ID NO: 41, recombinant (Sorghum bicolor) (protein, from genomic DNA) ATGASQPLGTDSNEEVEKVEEQPQPPPRLKIAVVGFGTFGQFLARTLVAQGHTVLAHSRSDHSAAAASMGALFFSDPHDLCECHPDVVLLATSILSAESVVRSLPLHRLRRDTLFADVLSVKEFPKRLLLGLLPEEMDILCTHPMFGPESARAGWAGLPFMFDKVRVRDTVPARRARAEAFLDVFAQEGCRMVEMSCAEHDAHAAETQFLTHTVGRMLAALELRATPIDTRGYETLLRLVENTCSDSFDLYNGLFMYNNNSTELLNRLDWAMDAVKRRLFDGLHDVLRRQLFHVGEVEGEAERMEELAVVPGGGPDTDDDGCATATATSIKSGEENN | 2130 ± 530 | 38.5 ± 8.8 | 18100 ± 9600 |  |  |  |
| Brachypodium distachyon BdTyrA2, SEQ ID NO: 35, recombinant (Brachypodium distachyon) (protein) RATDAARQPFDHLSGAVKSEEGTHPRLKIAIVGFGNYGQFLARTMVQQGHTVLAHSRSDHSAAAATIGASFYADAHDLCECQPDVVLLSTSILSAEAVLRSLPVHRFRRSTLFADVLSVKEFPKNLLLAYLPGDFDVICTHPMFGPESARDGWAGLPFVFDEVRVGDGPARRARADAFLDVFAREGCRMVEMSCAEHDAHAAETQFLTHTVGRMLATLDLKSTPINTKGYETLLRLVDNTCSDSFDLYNGLFMYNNNATELLHRLESAMDSVKRRLFDGLHEVLRRQLFEGSPPLNRDSSFPAESSLDDGR |  |  |  | 450 ± 40 | 18.5 ± 0.6 | 41200 ± 1700 |
| Brachypodium distachyon BdTyrAnc (non-canonical TyrA), SEQ ID NO: 37, recombinant (Brachypodium distachyon) (protein, from cDNA) AEQEQKQEVAAPCRDAYEKPAVWNTTAADSAEAAPPLRVGIIGFGNFGQFIARGIQRQGHAVLATSRSDYSAYCSAQGIRYFRSLEALCEEQPNVLLVCSSILSTEAVVRAIPFHKLRSDTIVADVLSVKQFPRNLLLEILPPEFGIVCTHPMFGPESGKHGWSTLPFVYDKVRLADKGDQKANCGQFLSIFEGEGCRMVEMSCAEHDRHAAASQFITHTIGRVLAQLNLKSTPINTKGFEALLKLTENTVSDSFDLYYGLFMYNVNATEQIEKLERAFEKVKQMLYGRLHDILRKQIVERVPI |  |  |  | 130 ± 40 | 76.5 ± 5.5 | 580000 ± 24300 |
| Brachypodium distachyon BdTyrA1, SEQ ID NO: 33, recombinant (Brachypodium distachyon) (protein, from genomic DNA) MLSSSTSHLRLHQPSRAARRLPPAPAPATYQFQSPASRRSLPAPAVGARIRPNRGGTIRAIDAAQPFDYESRAAGLLEERQRLKIAIVGFGNFGQFLARTFARQGHTLLAHSRSDHSSLAASLGAAYFQDPHDLCECHPDVVLLATSILSAEAVLRSLPVHRLRRNTLFVDVLSVKEFPKNLLLTTLPEGFDIICTHPMFGPESARDGWDGLPFVFDKVRVGDCPARRARADTFLNIFEREGCRMVEMSCAEHDAHAAETQFLTHTVGRMLATLELQSTPINTKGYETLLRLVDNTCSDSFDLYNGLFMYNKNSTDLLNRLESAMDSVKKRLFDGLHDVLRKQLFEGKASPPATSSNTKSDVHRGQLLLEGKASPAPLNANNTTVRN |  |  |  | 1410 ± 240 | 5.2 ± 0.8 | 3600 ± 800 |
| Sorghum bicolor SbTyrA1, SEQ ID NO: 39, recombinant (Sorghum bicolor) (protein, from genomic DNA) MLSSSTSTLRLHQPTRPHRHHPPAPAAGGATHLASPRRWRGHAPGASSPPALRARAQRIRALDAAQPFDFESRAAGLLEERQRLKIAIVGFGNFGQFLARTFARQGHTLLAHSRTDHSALASTLGASFFTDPHDLCECHPDVVLLATSILSAEAVLRSLPVHRLRRNTLFVDVLSVKEFPRNLLLSSLPPDFDVICTHPMFGPESARDGWDGLPFVFDKVRVGDCPARRARAEAFLNIFEREGCRMVEMSCAEHDAHAAETQFLTHTVGRMLAMLELRSTPINTKGYETLLRLVDNTCSDSFDLYNGLFMYNKNSTELLNRVEWAMDSVKKKLFDGLHDVLRKQLFEGSPHAPNVSSSNVRK | 570 ± 150 | 2.9 ± 0.6 | 5300 ± 800 |  |  |  |
| Sorghum bicolor SbTyrAnc (non-canonical TyrA), SEQ ID NO: 43, recombinant (Sorghum bicolor) (protein, from cDNA) ALTSPSPVEQHLQAVVPCHGISDPPAASSAAAVPAAPLRVGIVGFGNFGQFIAGGLQRQGHVVLAASRSDYSVYCASHGIRFFRSVDALCEEQPDVLLICSSILSTEGVVRAIPFRKLRHDTIVADVLSVKEFPRNLLLEVLPPGFGIICTHPMFGPESGKHGWGKLPFVFDKVRVAEDGDQAAKCDQFLSIFEQEGCRMVEMSCAEHDRYAAGSQFITHTIGRVLSQLNLKSTPINTKGYETLLQLTKNTVSDSFDLYYGLFMYNVNATEQLDKLEMAFEKVRQMLSGRLHDFIRKQIVERAAHVPADPSGKLANGLSSSPAARLL | 220 ± 60 | 73.5 ± 18.2 | 338000 ± 19500 |  |  |  |

— patent US20250115926A1, “DEREGULATED DHS AND TYRA ENZYMES OF GRASSES ENABLE EFFICIENT PRODUCTION OF BOTH TYROSINE AND PHENYLALANINE” (priority 2023, published 2025)
